In this experiment the target is T1, macrophage migration inhibitory factor (MIF) (human (endogenous in MCF-7)), P14174.
T1 chain: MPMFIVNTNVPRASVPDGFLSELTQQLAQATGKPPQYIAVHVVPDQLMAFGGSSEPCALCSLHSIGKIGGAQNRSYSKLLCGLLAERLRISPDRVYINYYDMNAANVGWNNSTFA
The experiment in a line: native MS; native top-down proteomics: whole cell lysates of MCF-7 and MCF-7-EGFR (EGFR-overexpressing) cells fractionated by native SEC, concentrated with molecular weight cutoff filters, direct ESI infusion FAIMS-MSn with HCD, Orbitrap detection; endogenous assemblies. The settings on record: remark: other sources report otherwise.

B1: macrophage migration inhibitory factor (MIF), P14174 1-115 (natural protein)
chain: T1 chain
modifications: here or on the partner: proteoforms released from the trimers: unmodified, nitrosylated at C80, acetylated at K77, truncated; phosphorylated subunits also reported (site not given); proteoforms released from the trimers: unmodified, nitrosylated at C80, acetylated at K77, truncated; phosphorylated subunits also reported (site not given)
Consider B1, for which the stoichiometry N (as a rule, the number of molecules, sites or subunits per partner or assembly) worked out at 3.

The values are drawn from article PMC10402242.
